The test system of the experiment is human blood samples. Description: OTEG fibrinolysis measurement (LY15) in human blood samples spiked with tPA. The conditions noted are these: human blood spiked with 0.5 μg/ml tPA (14% at 0 μg/ml), three repeated measurements, FIG. 13. The procedure:
Dilutional coagulopathy is generated by serially diluting whole blood (30-60%) with phosphate buffer saline (PBS) solution to vary MA (FIGS. 9A, 9B, 9C). Diluted blood is treated with low to high doses of fibrinogen concentrate (80-160 μL) which also varies MA. Undiluted blood is treated with unfractionated heparin to reach a maximum concentration of 1 U/ml to vary PT, R and K times. To induce fibrinolysis, blood is spiked with varying concentrations of tissue plasminogen activator (tPA) to alter % LY (FIGS. 10A, 10B). Thrombocytopenia or low platelet count is achieved by blood centrifugation, and substitution of platelet-rich with platelet-poor plasma at varying doses, followed by subsequent reconstitution. […]
FIGS. 12, 12B, 12C, 12D, and 12E illustrate the effect of tissue plasminogen activator (tPA) on blood coagulation parameters (Clot Reaction Time, Clotting Time, Clot Progression Rate, Clot Stiffness, and Fibrinolysis) measured with OTEG according to an embodiment of the invention and TEG. […]
FIG. 13 illustrates reproducibility in OTEG-based fibrinolysis measurement of the parameter LY15 in human blood samples spiked with 0-0.5 μg/ml of tPA. The concentration of tPA from 0 to 0.5 μg/ml increases the fibrinolysis from 14% to 51%, which can be successfully detected with an embodiment of the invention. […]

We go through 1 molecule from US12092631B2, “Optical thromboelastography systems and methods” (The General Hospital Corporation, priority 2014, dated 2024).

B1: tPA: tissue plasminogen activator, spiked into blood to activate fibrinolysis (protein, UniProt P00750 36-562, looked up)
Tissue-type plasminogen …: SYQVICRDEKTQMIYQQHQSWLRPVLRSNRVEYCWCNSGRAQCHSVPVKSCSEPRCFNGGTCQQALYFSDFVCQCPEGFAGKCCEIDTRATCYEDQGISYRGTWSTAESGAECTNWNSSALAQKPYSGRRPDAIRLGLGNHNYCRNPDRDSKPWCYVFKAGKYSSEFCSTPACSEGNSDCYFGNGSAYRGTHSLTESGASCLPWNSMILIGKVYTAQNPSAQALGLGKHNYCRNPDGDAKPWCHVLKNRRLTWEYCDVPSCSTCGLRQYSQPQFRIKGGLFADIASHPWQAAIFAKHRRSPGERFLCGGILISSCWILSAAHCFQERFPPHHLTVILGRTYRVVPGEEEQKFEVEKYIVHKEFDDDTYDNDIALLQLKSDSSRCAQESSVVRTVCLPPADLQLPDWTECELSGYGKHEALSPFYSERLKEAHVRLYPSSRCTSQHLLNRTVTDNMLCAGDTRSGGPQANLHDACQGDSGGPLVCLNDGRMTLVGIISWGLGCGQKDVPGVYTKVTNYLDWIRDNMRP
In the case of B1, the “fibrinolysis (LY15)” value is 51%.
